Source: patent US20160033523A1 (NOVOZYMES BIOPHARMA DK A S, published 2016)

B1: Wild type rat serum albumin (ligand)
chain: EAHKSEIAHRFKDLGEQHFKGLVLIAFSQYLQKCPYEEHIKLVQEVTDFAKTCVADENAENCDKSIHTLFGDKLCAIPKLRDNYGELADCCAKQEPERNECFLQHKDDNPNLPPFQRPEAEAMCTSFQENPTSFLGHYLHEVARRHPYFYAPELLYYAEKYNEVLTQCCTESDKAACLTPKLDAVKEKALVAAVRQRMKCSSMQRFGERAFKAWAVARMSQRFPNAEFAEITKLATDVTKINKECCHGDLLECADDRAELAKYMCENQATISSKLQACCDKPVLQKSQCLAEIEHDNIPADLPSIAADFVEDKEVCKNYAEAKDVFLGTFLYEYSRRHPDYSVSLLLRLAKKYEATLEKCCAEGDPPACYGTVLAEFQPLVEEPKNLVKTNCELYEKLGEYGFQNAVLVRYTQKAPQVSTPTLVEAARNLGRVGTKCCTLPEAQRLPCVEDYLSAILNRLCVLHEKTPVSEKVTKCCSGSLVERRPCFSALTVDETYVPKEFKAETFTFHSDICTLPDKEKQIKKQTALAELVKHKPKATEDQLKTVMGDFAQFVDKCCKAADKDNCFATEGPNLVARSKEALA
notes: also called RSA; RSA Wt
B2: Soluble cynomolgus macaque FcRn with cynomolgus beta2-microglobulin, HIS-tagged (receptor)
chain: AESHLSLLYHLTAVSSPAPGTPAFWVSGWLGPQQYLSYDSLRGQAEPCGAWVWENQVSWYWEKETTDLRIKEKLFLEAFKALGGKGPYTLQGLLGCELSPDNTSVPTAKFALNGEEFMNFDLKQGTWGGDWPEALAISQRWQQQDKAANKELTFLLFSCPHRLREHLERGRGNLEWKEPPSMRLKARPGNPGFSVLTCSAFSFYPPELQLRFLRNGMAAGTGQGDFGPNSDGSFHASSSLTVKSGDEHHYCCIVQHAGLAQPLRVELETPAKSS
b2m: IQRTPKIQVYSRHPPENGKPNFLNCYVSGFHPSDIEVDLLKNGEKMGKVEHSDLSFSKDWSFYLLYYTEFTPNEKDEYACRVNHVTLSGPRTVKWDRDM
notes: Synthesized by GeneArt, expressed in HEK cells; also called CynoFcRn; Cyno FcRn; not shown: HIS-tag on the C-terminal of the beta-chain

Legend:
[1] = biological target: T1, Soluble rat FcRn, GST-tagged, with human beta2-microglobulin (rat; Schistosoma japonicum; human, UniProt P08515 1-218 = GST); experiment: SPR, albumin over immobilized GST-FcRn, pH 6.0, 1:1 model
T1 construct: also called srFcRn
Protocol: (§1) SPR experiments were carried out using a Biacore 3000 instrument (GE Healthcare). Flow cells of CM5 sensor chips were coupled with soluble FcRn from one of the following species, human (shFcRn), rat (srFcRn), mouse (smFcRn), rhesus monkey (srmFcRn), dog (dFcRn) or pig (pFcRn) (˜900-2500 resonance units (RU)) using GE Healthcare amine coupling chemistry as per the manufacturer's instructions. The coupling was performed by injecting 2 or 10 μg/ml FcRn in 10 mM sodium acetate pH 5.0 (GE healthcare). Phosphate buffer (67 mM phosphate buffer, 0.15 M NaCl, 0.005% Tween 20) at pH 6.0) was used as running buffer and dilution buffer. Regeneration of the surfaces were done using injections of HBS-EP buffer (0.01 M HEPES, 0.15 M NaCl, 3 mM EDTA, 0.005% surfactant P20) at pH 7.4 (GE Healthcare). For determination of binding kinetics, serial dilutions of albumin (10-0.3 μM) were injected over immobilized receptors at a constant flow rate (50 μl/min) at 25° C. In all experiments, data were zero adjusted and the reference cell subtracted.

[2] = biological target: T2, Soluble mouse FcRn, GST-tagged, with human beta2-microglobulin (mouse; Schistosoma japonicum; human, UniProt P08515 1-218 = GST); experiment: as above
T2 construct: also called smFcRn
Protocol: as §1

[3] = biological target: T3, Soluble rhesus monkey FcRn, GST-tagged, with human beta2-microglobulin (rhesus monkey; Schistosoma japonicum; …, UniProt P08515 1-218 = GST); experiment: as above
T3 construct: also called srmFcRn; soluble rhesus macaque FcRn
Protocol: as §1

[4] = biological target: T4, Soluble pig FcRn, GST-tagged, with human beta2-microglobulin (Example 2) (pig; Schistosoma japonicum; human, UniProt P08515 1-218 = GST); experiment: as above
T4 construct: also called pFcRn; spFcRn
Protocol: as §1

[5] = biological target: T5, Soluble dog FcRn, GST-tagged, with human beta2-microglobulin (dog; Schistosoma japonicum; human, UniProt P08515 1-218 = GST); experiment: as above
T5 construct: also called dFcRn
Protocol: as §1

[6] = biological target: T1, Soluble rat FcRn, GST-tagged, with …; experiment: SPR, albumin over immobilized GST-FcRn, pH 6.0, steady state
Protocol: as §1

[7] = biological target: T2, Soluble mouse FcRn, GST-tagged, with …; experiment: as above
Protocol: as §1

[8] = biological target: T6, Wild type cynomolgus macaque serum albumin (cynomolgus macaque, UniProt A2V9Z4 24-608); experiment: SPR, albumin over immobilized His-FcRn, pH 5.5, 1:1 Langmuir
T6 construct: also called CSA; native cyno albumin
Protocol: as §1
The SPR assay was conducted with the following variations to the assay described in the Materials and Method section:
The soluble FcRn receptors were synthesized by GeneArt and expressed in HEK cells. The soluble FcRn contained a HIS-tag on the C-terminal of the Beta-chain instead of a GST on the heavy chain and the beta-chain used was the native beta-chain of the animal (see Materials and Method section for the corresponding sequences). The soluble FcRn was purified by a HIS trap column followed by an additional purification using an IgG column. The soluble FcRn receptor was diluted to 20 μg/mL. The phosphate buffer used as running buffer in the SPR assay was at pH 5.5 instead of pH 6.0. […] 1:1 Langmuir or Steady state model was used.

T6 sequence (A2V9Z4 24-608): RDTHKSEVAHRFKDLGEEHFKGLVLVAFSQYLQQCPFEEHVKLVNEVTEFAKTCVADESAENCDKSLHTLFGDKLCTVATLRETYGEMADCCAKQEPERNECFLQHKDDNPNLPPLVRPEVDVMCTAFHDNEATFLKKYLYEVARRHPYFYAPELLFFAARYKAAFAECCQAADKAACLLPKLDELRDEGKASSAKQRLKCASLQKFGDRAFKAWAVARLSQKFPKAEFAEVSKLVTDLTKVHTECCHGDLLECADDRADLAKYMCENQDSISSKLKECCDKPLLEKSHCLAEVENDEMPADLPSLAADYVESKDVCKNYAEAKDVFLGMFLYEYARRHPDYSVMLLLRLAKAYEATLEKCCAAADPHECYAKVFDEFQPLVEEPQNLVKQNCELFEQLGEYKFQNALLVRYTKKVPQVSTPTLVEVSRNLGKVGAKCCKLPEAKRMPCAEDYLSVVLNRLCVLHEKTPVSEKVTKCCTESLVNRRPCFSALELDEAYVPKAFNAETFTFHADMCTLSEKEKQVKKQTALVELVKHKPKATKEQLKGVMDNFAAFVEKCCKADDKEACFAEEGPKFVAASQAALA

Binder | Kd [1] | koff [1] | kon [1] | Kd [2] | koff [2] | kon [2] | Kd [3] | koff [3] | kon [3] | Kd [4] | koff [4] | kon [4] | Kd [5] | koff [5] | kon [5] | Kd [6] | Kd [7] | Kd [8]
B1 | 3.2 µM | 0.026 s⁻¹ | 7600 M⁻¹ s⁻¹ | 2.6 µM | 0.0341 s⁻¹ | 13000 M⁻¹ s⁻¹ | 2.2 µM | 0.0101 s⁻¹ | 4500 M⁻¹ s⁻¹ | 6.4 µM | 0.071 s⁻¹ | 11000 M⁻¹ s⁻¹ | 5.8 µM | 0.048 s⁻¹ | 8300 M⁻¹ s⁻¹ | 4.1 µM | 2.6 µM | 
B2 |  |  |  |  |  |  |  |  |  |  |  |  |  |  |  |  |  | 35 µM
